The values below come from paper PMC6719858, “Mitochondrial single-stranded DNA binding protein novel de novo SSBP1 mutation in a child with single large-scale mtDNA deletion (SLSMD) clinically manifesting as Pearson, Kearns-Sayre, and Leigh syndromes” (PLoS ONE, 2019).

Where a chain is given by its changes, count along the chain named. In names and notes the source's numbering stands.

Data set [1] deals with the molecule itself. Briefly: SEC; Superdex 200 10/300 GL, AKTA FPLC, Storage Buffer (30 mM HEPES-KOH pH 7.6, 250 mM KCl, 0.25 mM EDTA, 2 mM dithiothreitol, 10% glycerol); purified recombinant protein; single peak read as tetramer. For orientation: In gel filtration, larger molecules generally elute earlier.
Another data set deals with T1, SSBP1 p.E27K (human, UniProt Q04837 17-148, E27K).
T1 sequence: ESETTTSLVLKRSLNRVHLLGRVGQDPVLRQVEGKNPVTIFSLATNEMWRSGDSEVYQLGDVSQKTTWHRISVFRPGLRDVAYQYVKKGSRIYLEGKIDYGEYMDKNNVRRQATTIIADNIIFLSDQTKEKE
Put plainly: fluorescence anisotropy; 5 mM MgCl2; apparent Kd, protein as tetramer; 20 nM DNA; quadratic fit; plateau anisotropy about 1.4-fold higher than WT; 30 mM HEPES-KOH pH 7.6, 50 mM KCl, 2 mM DTT, 5 mM MgCl2, 20 nM FAM-oligonucleotide, 37 C. To be noted: protein: recombinant; chain copies: 4; label: 3' FAM (fluorescein); single strand. (In general: Fluorescence polarisation rises when a labelled molecule tumbles more slowly, as on binding a larger partner.)

A further data set concerns the target T2, SSBP1 WT (mtSSB) (human, UniProt Q04837 17-148).
T2 sequence: T1 sequence with K11E
Put plainly: fluorescence anisotropy; 5 mM MgCl2; apparent Kd, protein as tetramer; 20 nM DNA; quadratic fit; 30 mM HEPES-KOH pH 7.6, 50 mM KCl, 2 mM DTT, 5 mM MgCl2, 20 nM FAM-oligonucleotide, 37 C. The conditions noted are these: protein: recombinant; chain copies: 4; label: 3' FAM (fluorescein); single strand.

B1: wild-type human mitochondrial single-stranded DNA-binding protein (SSBP1) (natural protein, UniProt Q04837 17-148, looked up)
chain: T1 sequence with K11E
notes: No tag is mentioned; also called WT SSBP1; HmtSSB; source: E. coli BL21(DE3), purified (Affi-Gel Blue, MonoQ, Superdex 200)
Consider B1, for which, in data set [1], the stoichiometry N (usually a count of units in the complex or per binding partner) stood at 4.

B2: p.E27K human mitochondrial single-stranded DNA-binding protein (SSBP1) (natural protein, UniProt Q04837 17-148, looked up)
chain: T1 sequence
notes: Homotetramer of four mutant chains; The variant was found de novo in a patient; No tag is mentioned; also called p.E27K SSBP1; E27K SSBP1; source: E. coli BL21(DE3), purified (Affi-Gel Blue, MonoQ, Superdex 200)
In the case of B2, the “stoichiometry N” value in data set [1] amounted to 4.

B3: FAM-labeled 50 nt ssDNA (ssDNA)
DNA: AATGCTATCACTATTCGTAGACTTGACCACACCTTGTCAGCTCACGCTCC
With B3, the Kd in the data set with SSBP1 p.E27K came out at 9.3 nM; in the data set with SSBP1 WT (mtSSB), 2.3 nM.
